Measurements from IntAct's records for PubMed 11675338.

Legend:
fog1_mouse Zfpm1 [1] = molecular target: fog1_mouse Zfpm1 (UniProt O35615)
fog1_mouse Zfpm1 [2] = molecular target: fog1_mouse Zfpm1 (UniProt O35615); remark: listed apart in the source
fog1_mouse Zfpm1 [3] = molecular target: fog1_mouse Zfpm1 (UniProt O35615); remark: listed apart in the source

Chain of fog1_mouse Zfpm1 (O35615 whole entry): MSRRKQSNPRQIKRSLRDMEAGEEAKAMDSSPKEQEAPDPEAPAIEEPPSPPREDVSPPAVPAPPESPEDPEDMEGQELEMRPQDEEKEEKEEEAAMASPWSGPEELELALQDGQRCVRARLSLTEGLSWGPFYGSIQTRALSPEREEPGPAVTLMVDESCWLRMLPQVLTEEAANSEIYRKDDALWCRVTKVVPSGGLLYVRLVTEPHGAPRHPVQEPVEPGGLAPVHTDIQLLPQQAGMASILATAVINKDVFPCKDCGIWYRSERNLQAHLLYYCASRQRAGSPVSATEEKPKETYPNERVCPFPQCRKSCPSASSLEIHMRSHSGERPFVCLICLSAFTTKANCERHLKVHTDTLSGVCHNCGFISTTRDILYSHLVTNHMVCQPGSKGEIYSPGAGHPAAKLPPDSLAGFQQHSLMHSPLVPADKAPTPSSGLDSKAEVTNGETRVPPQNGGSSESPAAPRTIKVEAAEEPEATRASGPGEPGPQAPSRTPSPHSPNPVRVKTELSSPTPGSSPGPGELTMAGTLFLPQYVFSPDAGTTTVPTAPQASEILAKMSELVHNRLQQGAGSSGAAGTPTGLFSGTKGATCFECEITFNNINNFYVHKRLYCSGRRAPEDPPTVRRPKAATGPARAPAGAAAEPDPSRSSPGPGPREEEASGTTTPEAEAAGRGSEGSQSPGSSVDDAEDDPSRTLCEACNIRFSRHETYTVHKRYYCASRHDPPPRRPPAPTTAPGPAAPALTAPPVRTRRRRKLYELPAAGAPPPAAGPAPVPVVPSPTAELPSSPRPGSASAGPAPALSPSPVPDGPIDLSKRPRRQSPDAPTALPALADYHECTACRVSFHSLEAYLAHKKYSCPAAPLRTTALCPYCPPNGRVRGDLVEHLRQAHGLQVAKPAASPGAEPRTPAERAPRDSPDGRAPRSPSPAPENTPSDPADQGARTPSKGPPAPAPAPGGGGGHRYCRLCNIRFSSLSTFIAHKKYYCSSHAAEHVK
Chain of Erythroid transcription factor (Homo sapiens), P15976 G208S (P15976 whole entry G208S): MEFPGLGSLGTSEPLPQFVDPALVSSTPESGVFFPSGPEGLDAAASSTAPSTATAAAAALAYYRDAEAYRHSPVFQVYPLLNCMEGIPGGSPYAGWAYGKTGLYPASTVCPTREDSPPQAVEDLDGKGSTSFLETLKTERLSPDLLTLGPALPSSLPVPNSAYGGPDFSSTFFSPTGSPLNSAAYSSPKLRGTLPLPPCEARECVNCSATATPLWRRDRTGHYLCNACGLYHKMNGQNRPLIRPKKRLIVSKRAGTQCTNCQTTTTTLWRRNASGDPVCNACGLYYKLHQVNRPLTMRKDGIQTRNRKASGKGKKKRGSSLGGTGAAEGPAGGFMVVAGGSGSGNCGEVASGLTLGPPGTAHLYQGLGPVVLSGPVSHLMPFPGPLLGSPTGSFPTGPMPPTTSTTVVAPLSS

In the case of “Erythroid transcription factor (Homo sapiens), P15976 G208S”, the “effect of a mutation on the interaction” value (fog1_mouse Zfpm1 [1]) is reported as “with no effect”, the “effect of a mutation on the interaction” value (fog1_mouse Zfpm1 [2]) is reported as “decreasing interaction strength” and the “effect of a mutation on the interaction” value (fog1_mouse Zfpm1 [3]) is reported as “increasing interaction strength”.
